According to patent publication US20060239998A1:
Blank lines part the entries; values can stand above or below the binder they belong to.

How the values were obtained:
[1] = target: polyclonal antibodies of the patient from whom BO2C11 was derived; test: cell-based or functional assay
[2] = target: human monoclonal antibody BO2C11, FVIII-specific IgG4kappa inhibitory antibody against the C2 domain; test: surface plasmon resonance
[3] = target: BO2C11 surface antibody on the BO2C11 lymphoblastoid B-cell line; test: flow cytometry on the BO2C11 lymphoblastoid cell line, 1 or 10 µg/ml antibody, anti-mouse IgG-FITC
[4] = target: polyclonal antibodies of 6 unrelated patients with haemophilia A and inhibitor towards the C2 domain; test: immunoprecipitation of radiolabelled C2 domain with patient polyclonal antibodies and protein A Sepharose; Ab 14C12 added at increasing concentration
[5] = target: human monoclonal antibody BO2C11, FVIII-specific IgG4kappa inhibitory antibody against the C2 domain; test: cell-based or functional assay
[6] = target: Factor VIII (human recombinant FVIII) (human) (UniProt P00451); test: cell-based or functional assay
Chain of Factor VIII (human recombinant FVIII) (human) (P00451 20-2351): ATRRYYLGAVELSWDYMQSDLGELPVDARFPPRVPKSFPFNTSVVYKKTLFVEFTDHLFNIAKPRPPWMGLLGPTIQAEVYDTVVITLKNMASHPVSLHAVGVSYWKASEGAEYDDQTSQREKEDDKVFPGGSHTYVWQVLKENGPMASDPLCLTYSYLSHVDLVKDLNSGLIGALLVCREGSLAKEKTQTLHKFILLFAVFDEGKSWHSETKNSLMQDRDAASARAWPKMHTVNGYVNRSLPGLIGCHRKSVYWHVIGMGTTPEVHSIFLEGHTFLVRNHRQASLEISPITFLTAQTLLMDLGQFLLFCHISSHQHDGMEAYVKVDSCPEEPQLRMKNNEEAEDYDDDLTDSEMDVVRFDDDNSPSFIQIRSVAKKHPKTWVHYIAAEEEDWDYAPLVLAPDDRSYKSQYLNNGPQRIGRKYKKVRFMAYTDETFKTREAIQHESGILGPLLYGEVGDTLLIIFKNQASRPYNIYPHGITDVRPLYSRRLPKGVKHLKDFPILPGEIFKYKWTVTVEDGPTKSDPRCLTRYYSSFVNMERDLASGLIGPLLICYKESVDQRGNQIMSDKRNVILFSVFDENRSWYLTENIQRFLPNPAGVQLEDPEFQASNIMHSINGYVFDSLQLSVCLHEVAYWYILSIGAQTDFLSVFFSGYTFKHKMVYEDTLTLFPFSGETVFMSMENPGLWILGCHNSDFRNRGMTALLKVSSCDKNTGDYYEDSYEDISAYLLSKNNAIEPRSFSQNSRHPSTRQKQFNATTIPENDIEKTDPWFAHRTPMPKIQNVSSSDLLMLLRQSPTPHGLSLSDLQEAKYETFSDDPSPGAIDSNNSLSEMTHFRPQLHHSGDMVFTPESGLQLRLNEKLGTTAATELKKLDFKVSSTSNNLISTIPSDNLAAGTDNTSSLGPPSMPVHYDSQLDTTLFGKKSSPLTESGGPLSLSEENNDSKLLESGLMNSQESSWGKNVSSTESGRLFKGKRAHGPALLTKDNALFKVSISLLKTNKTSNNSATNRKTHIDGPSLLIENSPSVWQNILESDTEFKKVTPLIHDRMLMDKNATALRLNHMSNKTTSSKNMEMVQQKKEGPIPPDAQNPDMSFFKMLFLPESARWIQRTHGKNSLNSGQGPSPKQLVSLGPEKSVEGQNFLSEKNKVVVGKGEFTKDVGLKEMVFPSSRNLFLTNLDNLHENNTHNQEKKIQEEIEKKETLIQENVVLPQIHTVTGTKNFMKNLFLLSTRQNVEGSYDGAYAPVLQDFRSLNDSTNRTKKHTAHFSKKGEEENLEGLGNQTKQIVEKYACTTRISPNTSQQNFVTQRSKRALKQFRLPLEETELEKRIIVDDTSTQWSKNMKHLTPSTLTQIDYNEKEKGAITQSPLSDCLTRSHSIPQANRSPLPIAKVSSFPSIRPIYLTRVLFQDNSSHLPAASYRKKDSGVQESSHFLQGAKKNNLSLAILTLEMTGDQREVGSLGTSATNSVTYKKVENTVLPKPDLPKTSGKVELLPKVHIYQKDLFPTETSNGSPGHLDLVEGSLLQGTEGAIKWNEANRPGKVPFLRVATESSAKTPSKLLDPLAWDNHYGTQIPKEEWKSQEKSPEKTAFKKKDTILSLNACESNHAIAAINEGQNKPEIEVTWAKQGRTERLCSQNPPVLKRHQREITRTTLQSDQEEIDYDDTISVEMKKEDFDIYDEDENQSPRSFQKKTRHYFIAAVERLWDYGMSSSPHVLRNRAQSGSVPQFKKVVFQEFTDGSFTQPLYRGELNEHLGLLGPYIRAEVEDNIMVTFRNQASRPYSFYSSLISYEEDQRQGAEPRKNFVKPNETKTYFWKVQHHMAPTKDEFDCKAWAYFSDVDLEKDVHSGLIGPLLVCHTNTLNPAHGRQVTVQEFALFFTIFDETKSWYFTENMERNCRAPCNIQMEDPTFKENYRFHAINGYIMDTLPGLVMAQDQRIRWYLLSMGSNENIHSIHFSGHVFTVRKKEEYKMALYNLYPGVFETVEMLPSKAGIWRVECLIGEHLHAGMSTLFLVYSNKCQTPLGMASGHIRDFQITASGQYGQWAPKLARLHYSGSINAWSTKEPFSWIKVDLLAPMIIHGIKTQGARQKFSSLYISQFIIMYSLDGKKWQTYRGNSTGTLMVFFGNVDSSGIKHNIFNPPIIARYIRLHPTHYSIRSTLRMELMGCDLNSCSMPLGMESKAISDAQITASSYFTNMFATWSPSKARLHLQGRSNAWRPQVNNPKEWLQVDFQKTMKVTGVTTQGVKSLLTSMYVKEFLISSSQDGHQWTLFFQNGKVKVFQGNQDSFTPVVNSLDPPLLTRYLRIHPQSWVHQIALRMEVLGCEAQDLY

- neutralisation of polyclonal anti-FVIII antibodies (chromogenic assay) (% neutralisation) [1]: < 60
B1: anti-idiotypic antibody Ab 14C12 obtained from cell line 14C12 (LMBP 5878CB) (antibody, V domains shown)
VH: EVQLQQSGPELVKPGASVKLSCKASGYTFTSSVMHWLKQKSGQGLEWIGYINPYNDGTKYNEKFTAKATLTSDKSSSTVYMELSGLTSEDFAVYYCARSGGLLRGYWYFDVWGAGTTVTVSSAKTTAPSVYPLVPGC
VL: DLVLTQSPATLSVTPGDSVSLSCRASQDITNTLHWYHQKSHESPRLLIKYVSQSISGIPSRFSGSGSGTVFTLSINSVETEDFGVYFCQQSTSWPYTFGGGTKLEIKRADAAPTVSIFPPSSE

- koff [2]: 1e-05 s⁻¹
- percent of cells positive [3]: 68%
- percent neutralisation [4]: 50%
- in vivo neutralisation of BO2C11-mediated FVIII inhibition in FVIII-/- mice (% neutralisation at equimolar ratio) [5]: 50
- neutralisation of BO2C11 inhibitory capacity (chromogenic assay) ([5]; scale: % neutralisation at a '11' molar ratio): 50
- in vivo neutralisation of BO2C11-mediated FVIII inhibition in FVIII-/- mice ([5]; scale: molar excess of Ab 14C12 over BO2C11 for full neutralisation): 3.5
B2: anti-idiotypic antibody Ab 14C12 obtained from cell line 14C12 (LMBP 5878CB) (antibody, V domains shown)
VH: EVQLQQSGPELVKPGASVKLSCKASGYTFTSSVMHWLKQKSGQGLEWIGYINPYNDGTKYNEKFTAKATLTSDKSSSTVYMELSGLTSEDFAVYYCARSGGLLRGYWYFDVWGAGTTVTVSS
VL: DLVLTQSPATLSVTPGDSVSLSCRASQDITNTLHWYHQKSHESPRLLIKYVSQSISGIPSRFSGSGSGTVFTLSINSVETEDFGVYFCQQSTSWPYTFGGGTKLEIKR

- inhibition of FVIII procoagulant activity in FVIII-/- mice (% inhibition at 0.5 µg BO2C11) [6]: 98
- inhibition of FVIII-dependent substrate conversion (Faktor VIII chromogen test) (% inhibition at 0.1 µg/ml BO2C11) [6]: 100
B3: human monoclonal antibody BO2C11, FVIII-specific IgG4kappa inhibitory antibody against the C2 domain (antibody, from another filing, V domains shown)
VH: QVQLVQSGAEVKKPGASVKVSCKVSGYTLTELPVHWVRQAPGKGLEWVGSFDPESGESIYAREFQGSVTMTADTSTDIAYMELSSLRSDDTAVYYCAVPDPDAFDIWGQGTMVTVSS
VL: EIALTQSPGTLSLSPGERATLSCRASQSFSSSYLAWYQQKPGQAPRLLIYGASTRATGIPDRFSGSGSGTDFTLTISRLEPEDFAVYYCQKYGTSAITFGQGTRLEIK
